Assay results taken from patent CN109929036A (TAIZHOU MAIBO TAIKE PHARMACEUTICAL CO LTD, dated 2019).

Experiments:
[1] = target: CHO细胞重组表达的人PD-1胞外段全长蛋白(第20-170位氨基酸) (human) (UniProt Q15116); experiment: SPR, BIACORE3000, 5L12 coupled to the chip
[2] = target: T1, 化学合成的人PD-1第75-82位氨基酸(序列QTDKLAAF) (human); experiment: SPR, BIACORE3000, 5L12 coupled to the chip
T1 peptide: QTDKLAAF

[3] = target: T2, 表面表达人PD-1的基因重组293T细胞上的人PD-1 (human, UniProt Q15116 25-288); experiment: flow cytometry competition; displacement of FITC-PD-L1 from PD-1-expressing 293T cells
T2 construct: whole, on cells; also called 2H-3细胞表面PD-1; 表面表达PD-1的293T细胞
T2 sequence (Q15116 25-288): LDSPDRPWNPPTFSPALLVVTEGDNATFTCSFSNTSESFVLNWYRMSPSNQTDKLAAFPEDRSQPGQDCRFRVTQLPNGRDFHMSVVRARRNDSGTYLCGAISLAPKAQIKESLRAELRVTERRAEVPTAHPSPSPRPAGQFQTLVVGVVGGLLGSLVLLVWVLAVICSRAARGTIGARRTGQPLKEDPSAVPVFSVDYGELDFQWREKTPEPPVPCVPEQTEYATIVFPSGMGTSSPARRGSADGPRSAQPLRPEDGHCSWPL

B1: 全人源抗PD-1单克隆抗体5L12 (antibody, human IgG4 S228P, kappa, V domains shown)
VH: EVQLVESGGGLVQPGGSLRLSCAASGYTFTSYWMLWVRQAPGKGLEWVSYIYPSTGYTEYSENFKDRFTISRDNSKNTLYLQMNSLRAEDTAVYYCARGVRYYFDYWGQGTLVTVSS
VL: DIQMTQSPSSLSASVGDRVTITCKSSQSLLDSSTRKNYLAWYQQKPGKAPKLLIYWASTRESGVPSRFSGSGSGTDFTLTISSLQPEDFATYYCKQSYNLWTFGQGTKVEIKR
notes: also called FITC-5L12
Kd [1]: 0.01 nM
Kd [2]: ~0.01 nM
IC50 [3]: ~0.03 mg/L
IC50 ratio against Nivolumab [3]: 0.05 fold of the IC50 of Nivolumab
IC50 ratio against Pembrolizumab [3]: 0.5 fold of the IC50 of Pembrolizumab
